Laboratory results: publication PMC4402612

Biological target: SPE-7 IgE (DNP-specific murine IgE/λ, highly cytokinergic) (murine)

IC50 of recombinant SPE-7 IgE Fab (30–600 nM) for inhibition of LAD-2 cell TNF-α release evoked by 30 nM SPE-7 IgE; pair blocked: 'free' SPE-7 IgE with receptor-bound SPE-7 IgE: 170 nM
IC50 of recombinant SPE-7 IgE Fab (30–600 nM) for inhibition of LAD-2 mast cell degranulation induced by 30 nM SPE-7 IgE; pair blocked: 'free' SPE-7 IgE with receptor-bound SPE-7 IgE: 190 nM
Substance: recombinant SPE-7 IgE Fab
